Results from US20220031857A1 (OSSIANIX, published 2022).
“And” between values parts separate entries of the source, which are not always exact repeats. Equal entries are not always repeated.

T1: recombinant mouse TfR2 (mouse, UniProt Q9JKX3 103-798, limits assumed)
T1 construct: Negative control protein
T1 sequence (looked up): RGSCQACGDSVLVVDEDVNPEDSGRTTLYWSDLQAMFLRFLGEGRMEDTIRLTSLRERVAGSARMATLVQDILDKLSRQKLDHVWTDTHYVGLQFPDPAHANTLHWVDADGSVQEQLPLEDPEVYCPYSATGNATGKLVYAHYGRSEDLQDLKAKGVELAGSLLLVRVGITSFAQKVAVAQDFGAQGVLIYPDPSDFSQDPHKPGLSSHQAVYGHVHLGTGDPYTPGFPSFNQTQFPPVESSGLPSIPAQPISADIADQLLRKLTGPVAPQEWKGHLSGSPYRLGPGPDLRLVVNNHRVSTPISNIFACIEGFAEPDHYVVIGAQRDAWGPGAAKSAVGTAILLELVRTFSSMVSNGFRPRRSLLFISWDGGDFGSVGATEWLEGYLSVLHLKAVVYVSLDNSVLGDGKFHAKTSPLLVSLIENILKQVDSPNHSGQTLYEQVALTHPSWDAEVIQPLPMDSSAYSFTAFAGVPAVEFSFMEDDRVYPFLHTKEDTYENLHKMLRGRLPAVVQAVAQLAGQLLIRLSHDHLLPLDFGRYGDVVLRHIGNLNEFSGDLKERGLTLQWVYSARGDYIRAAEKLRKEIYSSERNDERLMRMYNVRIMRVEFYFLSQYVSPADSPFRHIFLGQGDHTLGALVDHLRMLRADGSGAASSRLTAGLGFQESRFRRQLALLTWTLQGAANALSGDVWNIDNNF


Columns and labels:
human serum albumin = target: T2, human serum albumin (human, UniProt P02768 25-609); test: ELISA with Expi293 culture medium used directly, coated HSA, anti-Fc detection
T2 construct: Negative control protein; also called HSA
T2 sequence (P02768 25-609 limits assumed): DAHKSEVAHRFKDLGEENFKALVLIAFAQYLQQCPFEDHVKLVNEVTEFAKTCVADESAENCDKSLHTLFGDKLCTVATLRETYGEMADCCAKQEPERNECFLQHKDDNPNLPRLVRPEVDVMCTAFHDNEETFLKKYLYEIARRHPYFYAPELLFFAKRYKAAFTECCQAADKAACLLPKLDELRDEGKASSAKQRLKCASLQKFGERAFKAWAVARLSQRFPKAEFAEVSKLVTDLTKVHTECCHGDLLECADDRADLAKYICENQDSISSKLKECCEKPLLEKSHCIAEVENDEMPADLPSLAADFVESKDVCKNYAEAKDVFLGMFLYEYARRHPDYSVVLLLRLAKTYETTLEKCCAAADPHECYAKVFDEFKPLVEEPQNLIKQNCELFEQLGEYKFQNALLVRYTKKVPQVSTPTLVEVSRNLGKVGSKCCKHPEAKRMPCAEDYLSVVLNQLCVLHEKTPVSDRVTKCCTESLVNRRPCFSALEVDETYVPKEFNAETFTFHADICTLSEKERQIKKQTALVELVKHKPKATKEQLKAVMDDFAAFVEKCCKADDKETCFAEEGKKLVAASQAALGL
Protocol: (§1) FIG. 6. […] The VNAR-Fc fusion proteins were transiently expressed using Expi293 expression system. VNAR-Fc constructs contained signal peptide sequence in order to be secreted. Cell growth media was used directly in ELISA. HSA and mouse TfR2 were used as negative controls for unspecific binding. A clone in position 52 represents untransfected cells. Total Fc concentration was measured with capture and detection anti-Fc antibody pair using irrelevant VNAR-Fc at known concentration for standard curve.
(§2) The next day the plates were blocked with […] with 0.1% Tween20 (PBST) for 1 hour at room temperature. Transfected cells were spun down at 2000 rpm for 10 minutes and the collected supernatant was mixed with milk in PBST to a final 2.5% concentration and incubated for 30 minutes. 100 μl of blocked supernatant was transferred into coated plates and incubated for 1 hour. […] The plates were washed and developed with TMB detection solution before stopping the reaction with 1% HCl. Absorbance was measured at 450 nm. A VNAR-Fc at know concentration was used for standard curve to calculate VNAR-Fc expression level.

recombinant mouse TfR2 = target: T1, recombinant mouse TfR2; test: ELISA with Expi293 culture medium used directly, coated mouse TfR2, anti-Fc detection
Protocol: as §1, §2

[1] = target: T3, recombinant human TfR1 (transferrin receptor 1) (human, UniProt P02786 89-760); test: ELISA with Expi293 culture medium used directly, coated human TfR1, anti-Fc detection, absorbance at 450 nm
T3 construct: Bought recombinant His-tagged protein; also called hTfR1
T3 sequence (P02786 89-760 limits assumed): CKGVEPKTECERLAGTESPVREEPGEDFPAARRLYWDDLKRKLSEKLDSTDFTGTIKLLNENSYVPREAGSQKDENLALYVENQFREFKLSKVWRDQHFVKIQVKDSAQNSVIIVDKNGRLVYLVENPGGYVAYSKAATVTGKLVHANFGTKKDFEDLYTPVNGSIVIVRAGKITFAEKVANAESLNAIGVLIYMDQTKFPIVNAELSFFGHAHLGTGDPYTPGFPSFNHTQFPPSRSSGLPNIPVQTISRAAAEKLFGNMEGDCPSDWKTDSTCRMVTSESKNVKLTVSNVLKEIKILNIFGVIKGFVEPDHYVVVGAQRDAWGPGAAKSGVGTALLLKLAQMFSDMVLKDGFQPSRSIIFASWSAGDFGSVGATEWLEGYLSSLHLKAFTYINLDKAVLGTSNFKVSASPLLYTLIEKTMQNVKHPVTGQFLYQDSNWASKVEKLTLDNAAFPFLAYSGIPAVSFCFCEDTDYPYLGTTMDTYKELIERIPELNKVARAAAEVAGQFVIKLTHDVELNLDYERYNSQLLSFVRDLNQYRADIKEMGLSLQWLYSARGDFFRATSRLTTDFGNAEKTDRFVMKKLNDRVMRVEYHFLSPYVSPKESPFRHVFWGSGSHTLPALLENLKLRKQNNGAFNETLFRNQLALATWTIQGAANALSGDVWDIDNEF
Protocol: as §1, §2

[2] = target: T3, recombinant human TfR1 (transferrin …); test: SPR (Biacore), single-cycle kinetics, His-tagged TfR1 captured, VNAR-Fc injected
Protocol: (§3) Binding kinetics of VNAR-Fcs was determined by surface plasmon resonance (Biacore T200, GE Healthcare). CM5 chips were coated with anti-His antibodies (His Capture Kit, GE Healthcare) as recommended by the manufacturer and human or mouse his-tagged TfR1 (SinoBiological) at 10 ug/mL in HBS-EP+ (GE Healthcare) was captured at flow rate 10 ul/min (contact time 120 s). […] A flow cell without TfR1 captured served as a reference. Sensorgrams were fitted and kinetic constants were determined using Biacore T200 Evaluation software. Chips were regenerated in 10 mM Glycine-HCl, pH 1.5 (contact time: 120 s at flow rate 30 ul/min).

[3] = target: T4, recombinant mouse TfR1 (transferrin receptor 1) (mouse, UniProt Q62351 89-763); test: as above
T4 construct: Bought recombinant His-tagged protein; also called mTfR1
T4 sequence (Q62351 89-763 limits assumed): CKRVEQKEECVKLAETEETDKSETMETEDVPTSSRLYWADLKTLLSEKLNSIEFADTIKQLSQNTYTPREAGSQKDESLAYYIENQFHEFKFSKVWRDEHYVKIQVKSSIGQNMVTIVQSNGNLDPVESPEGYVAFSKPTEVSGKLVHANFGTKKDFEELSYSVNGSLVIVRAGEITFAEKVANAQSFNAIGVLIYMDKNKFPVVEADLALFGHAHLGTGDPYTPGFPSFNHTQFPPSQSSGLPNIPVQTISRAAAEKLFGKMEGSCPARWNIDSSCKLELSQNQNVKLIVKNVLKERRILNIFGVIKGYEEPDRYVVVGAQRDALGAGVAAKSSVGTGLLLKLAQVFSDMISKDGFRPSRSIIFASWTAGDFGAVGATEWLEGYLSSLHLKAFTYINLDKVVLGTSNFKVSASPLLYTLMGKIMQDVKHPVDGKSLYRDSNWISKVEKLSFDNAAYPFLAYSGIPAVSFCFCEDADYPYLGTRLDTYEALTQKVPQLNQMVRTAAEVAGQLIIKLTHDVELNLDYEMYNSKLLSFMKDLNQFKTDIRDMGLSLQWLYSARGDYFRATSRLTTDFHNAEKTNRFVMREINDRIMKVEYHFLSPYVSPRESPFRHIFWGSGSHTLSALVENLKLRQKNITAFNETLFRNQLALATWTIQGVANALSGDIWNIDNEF
Protocol: as §3

[4] = target: T3, recombinant human TfR1 (transferrin …); test: Octet, human TfR1 immobilised; 8D3 as first antibody, which does not bind human TfR1 (grey column); white cell
Protocol: FIGS. 15A and 15B. Epitope binning by cross-competition binding to mouse and human TfR1. VNAR-Fc fusion proteins were tested for cross-blocking in a pairwise manner against mouse (A) and human TfR1 (B) immobilised on biosensors using the Octet platform.
A series of biochemical parameters was examined to further characterize the panel VNAR to TfR1 obtained from in vivo phage display selections. Epitope binning experiments were performed to assess whether the VNARs could compete against each other for binding to either the mouse or human TfR1. […] Because each VNAR binds via a unique CDR3 region with a different structural topography, steric interactions could be important efficient transcytosis.

[5] = target: T4, recombinant mouse TfR1 (transferrin …); test: ELISA, plate coated with 1 µg/ml recombinant mouse TfR1, purified VNAR-Fc titrated, 4-parameter fit; Clone 2 stands twice in the legend

| Binder | binding result (human serum albumin) | binding result (recombinant mouse TfR2) | binding result [1] | Kd [2] [nM] | koff [2] [s⁻¹] | kon [2] [M⁻¹ s⁻¹] | Kd [3] [nM] | koff [3] [s⁻¹] | kon [3] [M⁻¹ s⁻¹] | Octet signal as second antibody after 8D3 [4] | EC50 [5] |
| --- | --- | --- | --- | --- | --- | --- | --- | --- | --- | --- | --- |
| Clone 11 VNAR-Fc fusion protein (Fc fusion, Bivalent VNAR-Fc; not shown: glycine/serine linker (GxSx)n extending the hinge; human IgG1 Fc (hinge, CH2, CH3) of pFUSE-hIgG1e3-Fc2; G236 also deleted) ARVDQTPQTITKETGESLTINCVLRDSNCALPSTHWYRKKSGSTNEESISKGGRYVETVNSGSKSFSLRINDLTVEDSGTYRCKVLNFFTHTCVQVQKYDVYGGGTAVTVNA | no binding | no binding | binds |  |  |  |  |  |  |  |  |
| Clone 2 VNAR-Fc fusion protein (Fc fusion, Bivalent VNAR-Fc; not shown: glycine/serine linker (GxSx)n extending the hinge; human IgG1 Fc (hinge, CH2, CH3) of pFUSE-hIgG1e3-Fc2; G236 also deleted) ARVDQTPQTITKETGESLTINCVLRDNNCALSTTYWYRKKSGSTNEENISKGGRYVETVNSGSKSFSLKINDLTVEDSGTYRCNVFGVDNGWWCDVYGGGTVVTVNA | no binding | no binding |  | 2.34 | 0.000445 | 190000 | 2.56 | 0.000501 | 195000 | 0.454 | 433 nM and 761 nM |
